# Laboratory results reported in patent publication US20230272041A1 (DRAGONFLY THERAPEUTICS, published 2023).
# Numbering of substitutions follows the chain as printed.
# B1: DF-hIL-12-Fc si (Fc fusion)
# chain 1: IWELKKDVYVVELDWYPDAPGEMVVLTCDTPEEDGITWTLDQSSEVLGSGKTLTIQVKEFGDAGQYTCHKGGEVLSHSLLLLHKKEDGIWSTDILKDQKEPKNKTFLRCEAKNYSGRFTCWWLTTISTDLTFSVKSSRGSSDPQGVTCGAATLSAERVRGDNKEYEYSVECQEDSACPAAEESLPIEVMVDAVHKLKYENYTSSFFIRDIIKPDPPKNLQLKPLKNSRQVEVSWEYPDTWSTPHSYFSLTFCVQVQGKSKREKKDRVFTDKTSATVICRKNASISVRAQDRYYSSSWSEWASVPCSPKSSDKTHTCPPCPAPEAAGGPSVFLFPPKPKDTLMISRTPEVTCVVVDVSHEDPEVKFNWYVDGVEVHNAKTKPREEQYNSTYRVVSVLTVLHQDWLNGKEYKCKVSNKALAAPIEKTISKAKGQPREPQVCTLPPSRDELTENQVSLTCLVKGFYPSDIAVEWESNGQPENNYKTTPPVLDSDGSFFLYSWLTVDKSRWQQGNVFSCSVMHEALHNHYTQKSLSLSPG
# chain 2: RNLPVATPDPGMFPCLHHSQNLLRAVSNMLQKARQTLEFYPCTSEEIDHEDITKDKTSTVEACLPLELTKNESCLNSRETSFITNGSCLASRKTSFMMALCLSSIYEDLKMYQVEFKTMNAKLLMDPKRQIFLDQNMLAVIDELMQALNFNSETVPQKSSLEEPDFYKTKIKLCILLHAFRIRAVTIDRVMSYLNASGGGGSGGGGSGGGGSEPKSSDKTHTCPPCPAPEAAGGPSVFLFPPKPKDTLMISRTPEVTCVVVDVSHEDPEVKFNWYVDGVEVHNAKTKPREEQYNSTYRVVSVLTVLHQDWLNGKEYKCKVSNKALAAPIEKTISKAKGQPREPRVYTLPPCRDELTKNQVSLTCLVKGFYPSDIAVEWESNGQPENNYKTTPPVLVSDGSFTLYSKLTVDKSRWQQGNVFSCSVMHEALHNHYTQKSLSLSPG
# notes: also called DF IL-12-Fc; hIL-12-Fc-LALAPA
# Experiments:
# human FcRn = human FcRn (human, UniProt P55899 24-297; P61769 21-119); assay: FcRn binding at pH 6.0, reference IgG1 isotype control trastuzumab (method not stated in the paragraph)
# cynomolgus monkey FcRn = cynomolgus monkey FcRn (cynomolgus monkey, UniProt Q8SPV9 24-297; Q8SPW0 21-119); assay: as above
# [1] = target: T1, recombinant human CD32a H131 allele (human, UniProt P12318 36-218, limits assumed, site-specific biotinylation (site not stated)); assay: SPR (Biacore 8K), receptor captured on the chip via site-specific biotinylation; qualitative assessment
# T1 construct: also called FcγRIIA H131
# T1 sequence (looked up): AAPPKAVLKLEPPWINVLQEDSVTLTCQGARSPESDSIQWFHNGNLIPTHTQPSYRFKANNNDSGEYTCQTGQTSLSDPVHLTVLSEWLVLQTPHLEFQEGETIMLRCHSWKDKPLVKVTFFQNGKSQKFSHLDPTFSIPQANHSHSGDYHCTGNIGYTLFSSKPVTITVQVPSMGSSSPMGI
# [2] = target: T2, recombinant human CD16a F158 allele (human, UniProt P08637 17-208, site-specific biotinylation (site not stated)); assay: as above
# T2 construct: also called FcγRIIIA F158
# recombinant human CD16b = target: T3, recombinant human CD16b (human, UniProt O75015 17-200, site-specific biotinylation (site not stated)); assay: as above
# T3 construct: also called FcγRIIIB
# [3] = target: recombinant cynomolgus CD16 (cynomolgus, UniProt Q8SPW2 17-208, site-specific biotinylation (site not stated)); assay: as above
# [4] = target: T4, recombinant human CD32a R131 allele (human, UniProt P12318 36-218, limits assumed, site-specific biotinylation (site not stated)); assay: as above
# T4 construct: also called FcγRIIA R131
# T4 sequence (looked up): T1 sequence (looked up) with H132R
# recombinant human CD32b = target: T5, recombinant human CD32b (human, UniProt P31994 46-217, limits assumed, site-specific biotinylation (site not stated)); assay: as above
# T5 construct: also called FcγRIIB
# T5 sequence (looked up): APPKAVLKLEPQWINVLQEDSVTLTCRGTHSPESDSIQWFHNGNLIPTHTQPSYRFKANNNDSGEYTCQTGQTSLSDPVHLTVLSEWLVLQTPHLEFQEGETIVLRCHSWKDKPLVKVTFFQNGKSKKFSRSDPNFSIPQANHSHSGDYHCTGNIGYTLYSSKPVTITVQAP
# recombinant human CD64 = target: T6, recombinant human CD64 (human, UniProt P12314 16-288, limits assumed, site-specific biotinylation (site not stated)); assay: as above
# T6 construct: also called FcγRI
# [5] = target: T7, recombinant human CD16a V158 allele (human, UniProt P08637 17-208, site-specific biotinylation (site not stated)); assay: as above
# T7 construct: also called FcγRIIIA V158
# T7 sequence (P08637 17-208 F176V limits assumed): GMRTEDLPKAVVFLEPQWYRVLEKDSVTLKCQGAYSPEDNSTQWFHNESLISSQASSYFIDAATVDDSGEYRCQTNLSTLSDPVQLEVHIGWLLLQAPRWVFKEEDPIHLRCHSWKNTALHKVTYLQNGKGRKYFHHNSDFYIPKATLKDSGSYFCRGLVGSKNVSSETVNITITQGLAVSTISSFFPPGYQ
# human FcRn, sequence (P55899 24-297 limits assumed, form in doubt, chain 1 of 2): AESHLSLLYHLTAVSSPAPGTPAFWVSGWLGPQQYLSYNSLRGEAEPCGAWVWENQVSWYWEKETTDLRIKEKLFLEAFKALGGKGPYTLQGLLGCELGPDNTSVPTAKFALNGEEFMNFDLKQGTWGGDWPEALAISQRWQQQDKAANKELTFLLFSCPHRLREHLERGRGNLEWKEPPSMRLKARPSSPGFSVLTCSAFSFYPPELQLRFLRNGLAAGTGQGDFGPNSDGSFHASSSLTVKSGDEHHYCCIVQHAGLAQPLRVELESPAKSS
# human FcRn, sequence (P61769 21-119 limits assumed, form in doubt, chain 2 of 2): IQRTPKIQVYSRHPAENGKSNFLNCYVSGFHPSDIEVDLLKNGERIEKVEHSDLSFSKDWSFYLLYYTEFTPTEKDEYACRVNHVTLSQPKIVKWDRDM
# recombinant cynomolgus CD16, sequence (Q8SPW2 17-208 limits assumed): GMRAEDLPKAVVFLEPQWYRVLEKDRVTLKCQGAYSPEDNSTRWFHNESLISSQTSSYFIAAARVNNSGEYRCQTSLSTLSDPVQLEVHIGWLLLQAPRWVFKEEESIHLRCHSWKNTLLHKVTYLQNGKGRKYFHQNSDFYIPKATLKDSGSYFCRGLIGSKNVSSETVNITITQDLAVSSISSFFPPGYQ
# T2 sequence (P08637 17-208 limits assumed): as the sequence (P08637 17-208 F176V limits assumed) above, with V160F counted along it
# T3 sequence (O75015 17-200 limits assumed): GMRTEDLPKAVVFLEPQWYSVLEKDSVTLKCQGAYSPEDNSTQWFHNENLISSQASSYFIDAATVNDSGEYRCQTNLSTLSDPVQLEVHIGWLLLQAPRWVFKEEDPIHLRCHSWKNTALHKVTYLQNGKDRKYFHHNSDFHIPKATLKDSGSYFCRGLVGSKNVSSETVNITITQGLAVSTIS
# T6 sequence (P12314 16-288 limits assumed): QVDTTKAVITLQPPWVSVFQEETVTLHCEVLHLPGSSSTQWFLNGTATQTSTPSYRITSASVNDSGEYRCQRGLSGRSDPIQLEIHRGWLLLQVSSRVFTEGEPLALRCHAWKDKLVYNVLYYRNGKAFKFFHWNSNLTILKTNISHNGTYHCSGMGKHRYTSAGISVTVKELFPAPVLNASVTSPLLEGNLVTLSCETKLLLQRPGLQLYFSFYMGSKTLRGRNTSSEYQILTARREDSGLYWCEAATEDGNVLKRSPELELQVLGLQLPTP
# cynomolgus monkey FcRn, sequence (Q8SPV9 24-297 limits assumed, chain 1 of 2): as the sequence (P55899 24-297 limits assumed, form in doubt, chain 1 of 2) above, with N39D, E44Q, G99S, S189G, S190N, L217M, S269T counted along it
# cynomolgus monkey FcRn, sequence (Q8SPW0 21-119 limits assumed, chain 2 of 2): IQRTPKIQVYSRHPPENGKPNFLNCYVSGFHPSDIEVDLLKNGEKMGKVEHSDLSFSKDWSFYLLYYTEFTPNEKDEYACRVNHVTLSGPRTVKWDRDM
binder,measurement,setting,value
B1,fold difference in binding affinity value against trastuzumab,human FcRn,< 1.5 fold
same,fold difference in binding affinity value against trastuzumab,cynomolgus monkey FcRn,< 1.5 fold
same,binding result,[1],no binding
same,binding result,[2],no binding
same,binding result,recombinant human CD16b,no binding
same,binding result,[3],no binding
same,binding result,[4],no binding
same,binding result,recombinant human CD32b,no binding
same,binding result,recombinant human CD64,no binding
same,binding result,[5],no binding
